According to the supplement of paper PMC7877785:
± gives the uncertainty stated by the source.

Assay: self-splicing fitness, log relative to wild type (ln ratio); higher = more splicing; Tetrahymena group I intron in knt gene, E. coli kanamycin selection, DiMSum; sequences stand for … in CUCUCU…GGAGGGAAAAGUUAUCAGGCAUGCACCUGGUAGCUAGUCUUUAAACCAAUAGAUUGCAUCGGUUUAAAAGGCAAGACCGUCAAAUUGCGGGAAAGGGGUCAACAGCCGUUCAGUACCAAGUCUCAGGGGAAACUUUGAGAUGGCCUUGCAAAGGGUAUGGUAAUAAGCUGACGGACAUGGUCCUAACCACGCAGCCAAGUCCUAAGUCAACAGAUCUUCUGUUGAUAUGGAUGCAGUUCACAGACUAAAUGUCGGUCGGGGAAGAUGUAUUCUUCUCAUAAGAUAUAGUCGGACCUCUCCUUAAUGGGAGCUAGCGGAUGAAGUGAUGCAACACUGGAGCCGCUGGGAACUAAUUUGUAUGCGAAAGUAUAUUGAUUAGUUUUGGAGUACUCGUGGUCG
Method in brief: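 Six replicate transformations of E. coli BL21(DE3) with a pET-22b(+) library were grown overnight at 37°C or 30°C. The library randomised all eight P1ex-region intron nucleotides, the intron lying in the knt kanamycin-resistance gene, and plates were LB agar with or without 25 μg/mL kanamycin plus 100 μg/mL carbenicillin, 50 μM IPTG and 0.2% rhamnose. Pooled colonies were amplicon-sequenced on an Illumina HiSeq 2500, and fitness is the DiMSum error-weighted combination of wild-type-normalised replicate fold changes, kanamycin versus none.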

Row | Sequence | self-splicing fitness (ln) (30 °C) | self-splicing fitness (ln) (37 °C)
1 | CCCGAGCAAUAUUACGUCAC | -2.9 ± 0.37 | -2.27 ± 0.49
2 | CCCGAGCAAUAUUACGUCGG | -3.02 ± 0.25 | -2.41 ± 0.32
3 | CCCGAGCAAUAUUACGUUAC | -3.01 ± 0.35 | -2.37 ± 0.32
4 | CCCUAGCAAUAUUACGACAU | -3.809 ± 0.024 | -2.93 ± 0.039
5 | CCCUAGCAAUAUUACGACGC | -3.34 ± 0.32 | -2.53 ± 0.39
6 | CCCUAGCAAUAUUACGACUC | -4.18 ± 0.28 | -2.71 ± 0.24
7 | CCCUAGCAAUAUUACGAUAC | -2.76 ± 0.38 | 
8 | CCCUAGCAAUAUUACGAUCA | -3.03 ± 0.25 | -2.22 ± 0.24
9 | CCCUAGCAAUAUUACGAUCC |  | -1.26 ± 0.45
10 | CCCUAGCAAUAUUACGAUGU | -3.58 ± 0.22 | -2.55 ± 0.18
11 | CCCUAGCAAUAUUACGCACC |  | -2.9 ± 0.48
12 | CCCUAGCAAUAUUACGCCCU | -3.61 ± 0.35 | -1.54 ± 0.23
13 | CCCUAGCAAUAUUACGCCGC | -3.7 ± 0.25 | -1.96 ± 0.27
14 | CCCUAGCAAUAUUACGCUGA | -3.14 ± 0.23 | -2.85 ± 0.38
15 | CCCUAGCAAUAUUACGGGGC | -3.47 ± 0.15 | -2.15 ± 0.22
16 | CCCUAGCAAUAUUACGGUAC | -4.33 ± 0.34 | -3.04 ± 0.32
17 | CCCUAGCAAUAUUACGUAAA |  | -2.22 ± 0.32
18 | CCCUAGCAAUAUUACGUAAC | -3.66 ± 0.27 | -1.33 ± 0.18
19 | CCCUAGCAAUAUUACGUACG | -2.86 ± 0.18 | -2.81 ± 0.27
20 | CCCUAGCAAUAUUACGUAGC | -2.65 ± 0.17 | -2.75 ± 0.24
21 | CCCUAGCAAUAUUACGUGCC | -3.52 ± 0.22 | -2.2 ± 0.24
22 | CCGAAGCAAUAUUACGACAU | -3.977 ± 0.028 | -2.82 ± 0.04
23 | CCGAAGCAAUAUUACGCAUA | -2.88 ± 0.27 | -3.64 ± 0.31
24 | CCGAAGCAAUAUUACGCCCU |  | -1.26 ± 0.46
25 | CCGAAGCAAUAUUACGCCUA | -2.94 ± 0.22 | -2.62 ± 0.28

Row | Sequence | self-splicing fitness (ln) (30 °C) | self-splicing fitness (ln) (37 °C)
26 | CCGAAGCAAUAUUACGCGAC | -3.1 ± 0.2 | -1.48 ± 0.19
27 | CCGAAGCAAUAUUACGCGCC | -2.58 ± 0.23 | -2.27 ± 0.3
28 | CCGAAGCAAUAUUACGCGUA | -3.7 ± 0.23 | -2.84 ± 0.2
29 | CCGAAGCAAUAUUACGCGUC | -3.28 ± 0.25 | -3.2 ± 0.32
30 | CCGAAGCAAUAUUACGCUAA | -3.2 ± 0.34 | -2.7 ± 0.43
31 | CCGAAGCAAUAUUACGCUGC | -2.89 ± 0.34 | -2.4 ± 0.45
32 | CCGAAGCAAUAUUACGCUUG | -3.79 ± 0.33 | -2.26 ± 0.22
33 | CCGAAGCAAUAUUACGGAAA | -3.26 ± 0.26 | -3.49 ± 0.31
34 | CCGAAGCAAUAUUACGGCAG | -2.86 ± 0.15 | -1.44 ± 0.16
35 | CCGAAGCAAUAUUACGGCGU | -3.6 ± 0.17 | -2.79 ± 0.17
36 | CCGAAGCAAUAUUACGGCUC | -3.57 ± 0.32 | -2.81 ± 0.35
37 | CCGAAGCAAUAUUACGGGCU | -4.21 ± 0.23 | -2.36 ± 0.2
38 | CCGAAGCAAUAUUACGGUUG | -1.84 ± 0.059 | -0.955 ± 0.072
39 | CCGAAGCAAUAUUACGUAGG | -3.15 ± 0.17 | -2.65 ± 0.23
40 | CCGAAGCAAUAUUACGUAGU | -3.44 ± 0.17 | -3.21 ± 0.23
41 | CCGAAGCAAUAUUACGUCUC | -3.9 ± 0.28 | -3.47 ± 0.2
42 | CCGAAGCAAUAUUACGUUCU | -3.84 ± 0.26 | -3.37 ± 0.24
43 | CCGCAGCAAUAUUACGAAUA | -3.37 ± 0.38 | -2.62 ± 0.38
44 | CCGCAGCAAUAUUACGAAUC | -1.78 ± 0.17 | 
45 | CCGCAGCAAUAUUACGAAUG | -1.2 ± 0.063 | -0.305 ± 0.065
46 | CCGCAGCAAUAUUACGAAUU | -3.73 ± 0.19 | -2.51 ± 0.2
47 | CCGCAGCAAUAUUACGAGGC | -3.72 ± 0.19 | -2.65 ± 0.23
48 | CCGCAGCAAUAUUACGAGUC | -3.36 ± 0.26 | -3.29 ± 0.28
49 | CCGCAGCAAUAUUACGAUCU | -3.81 ± 0.29 | -2.35 ± 0.26
50 | CCGCAGCAAUAUUACGAUUA | -3.03 ± 0.23 | -2.72 ± 0.29
